Reference: patent publication US20220089678A1 (CARTESIAN THERAPEUTICS, published 2022)

T1: human BCMA on cells (human, UniProt Q02223 1-184)
T1 sequence: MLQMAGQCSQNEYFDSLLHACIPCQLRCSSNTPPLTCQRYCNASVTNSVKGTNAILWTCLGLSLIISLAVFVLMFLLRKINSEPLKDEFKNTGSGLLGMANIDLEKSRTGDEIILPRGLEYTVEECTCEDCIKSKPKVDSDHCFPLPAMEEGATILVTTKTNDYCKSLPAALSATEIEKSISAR

T2: phycoerythrin (PE)-conjugated BCMA (Recombinant Human TNFRSF17 protein, Fc/His-tagged, R-PE labeled); Creative … (human, UniProt Q02223 1-54, R-PE labeled)
T2 construct: Bought reagent; also called BCMA-PE; not shown: Fc/His tag of the bought reagent
T2 sequence: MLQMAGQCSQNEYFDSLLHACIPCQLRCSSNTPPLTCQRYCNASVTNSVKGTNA


Experiments:
human BCMA on cells [1] = biological target: T1, human BCMA on cells; experiment: cell-based or functional assay
[2] = biological target: T2, phycoerythrin (PE)-conjugated BCMA …; experiment: flow cytometry; CAR T cells stained with BCMA-PE, 3 days after electroporation
Method: (§1) CAR T cells obtained from the above-described process were tested for viability, CAR protein expression, BCMA binding, and cytotoxicity, i.e., the ability to kill BCMA+ myeloma (tumor) cells. Viability, CAR expression, and BCMA binding were determined by flow cytometry on a GUAVA® […]® 12HT Flow cytometer (EMD Millipore). To test viability, a sample of the CAR T cells was mixed with propidium iodide and run on the flow cytometer with electronic gating on fluorescence in the near infrared channel. To test CAR protein expression and BCMA binding, a sample of the CAR T cells was incubated with 0.4 ug/mL of phycoerythrin (PE)-conjugated BCMA (Recombinant Human TNFRSF17 protein, Fc/His-tagged, R-PE labeled; Creative Biomart, Shirley, N.Y.). CAR expression was assessed on the flow cytometer with electronic gating on fluorescence in the yellow channel to detect presence or absence of emission from BCMA-PE on CAR-positive and CAR-negative cells. BCMA binding was determined by measuring the intensity of fluorescence in the yellow channel to determine the relative quantity of BCMA-PE bound to labelled CAR-positive cells. For the viability, expression, and BCMA binding assays, CD8+ T cells electroporated without mRNA (CAR-negative T Cells) were tested as a parallel control.
For each of the mRNA constructs, CAR T cells were prepared by transfection into human CD8+ cells, as described in Example 1. The CAR T cells made from each mRNA construct were then tested 3 days after electroporation for BCMA binding and tumor killing, as described in Example 1.

human BCMA on cells [3] = biological target: T1, human BCMA on cells; experiment: cell-based or functional assay; remark: listed apart in the source
[4] = biological target: T2, phycoerythrin (PE)-conjugated BCMA …; experiment: flow cytometry; CAR T cells stained with BCMA-PE, 3 days after electroporation; remark: listed apart in the source
Method: as §1
Numerous CAR-encoding mRNA constructs were prepared using the mRNA construct of SEQ ID: 29 as a starting point (which encodes a CAR of sequence SEQ ID: 19 and comprises the scFv of sequence SEQ ID: 48). These constructs encoded the same or substantially the same amino acid residues in the scFv complementary-determining regions (CDRs) but varied with respect to the amino acid residues in the scFv framework regions. In making these variations, the experimenter's intent was to humanize the scFv framework regions without reducing BCMA-binding and tumor-killing properties of CAR T cells that express the CAR. For each of the mRNA constructs, CAR T cells were prepared by transfection into human CD8+ cells, substantially as described in Example 1. The CAR T cells made from each mRNA construct were then tested 3 days after electroporation for BCMA binding and/or tumor killing, as substantially described in Example 1.

| Binder | Killing (% killed), Effector:target ratio of 1:2 (human BCMA on cells [1]) [%] | BCMA Binding (arbitrary units) [2] [arbitrary units] | Killing (% killed), Effector:target ratio of 1:10 (human BCMA on cells [3]) [%] | BCMA Binding [4] | BCMA Binding (relative to SEQ ID: 54) [4] |
| --- | --- | --- | --- | --- | --- |
| CAR comprising scFv-13′ (SEQ ID NO: 69) (other, CAR on mRNA-electroporated human CD8+ T cells; Only the scFv is identified; not shown: rest of the CAR (hinge, transmembrane, cytoplasmic domains) not specified for this construct) DIVLTQSPSSLSASVGDRATISCRASESVSFLGINLIHWYQQKPGQAPKLLIYLASNLETGVPARFSGSGSGTDFTLTISSVEPEDVAVYYCLQSRTLPRTFGQGTKVEIKGSTSGSGKPGSGEGSTKGQIQLVQSGPELKKPGGSVKISCAASGYTFTSYSINWVRQAPGKGLEWVGWINTETREPAYAQGFTGRFTFSADTSKSTAYLQMNSLRAEDTAVYYCALDYLYSLDFWGQGTLVTVSS | 77 | 230 |  |  |  |
| CAR comprising scFv-Y32 (SEQ ID NO: 57) (other, CAR on mRNA-electroporated human CD8+ T cells; Only the scFv is identified; not shown: rest of the CAR (hinge, transmembrane, cytoplasmic domains) not specified for this construct) DIVLTQSPSSLSASVGDRATISCRASESVTILGSHLIHWYQQKPGQAPKLLIQLASNVQTGVPARFSGSGSGTDFTLTISSVEPEDVAVYYCLQSRTIPRTFGQGTKVEIKGSTSGSGKPGSGEGSTKGQIQLVQSGPELKKPGGSVKISCAASGYTFTDYSINWVRQAPGKGLEWVGWINTETREPAYAYDFRGRFTFSADTSKSTAYLQMNSLRAEDTAVYYCALDYSYAMDYWGQGTLVTVSS | 85 | 343 | 85 | 460 relative (SEQ ID: 48 = 100) | 124 relative to SEQ ID: 54 = 100 |
| CAR comprising scFv-21′ (SEQ ID NO: 70) (other, CAR on mRNA-electroporated human CD8+ T cells; Only the scFv is identified; not shown: rest of the CAR (hinge, transmembrane, cytoplasmic domains) not specified for this construct) DIVLTQSPSSLSASVGDRATISCRASESVTILGSHLIHWYQQKPGQAPKLLINLASNVNTGVPARFSGSGSGTDFTLTISSVEPEDVAVYYCLQSRTIPRTFGQGTKVEIKGSTSGSGKPGSGEGSTKGQIQLVQSGPELKKPGGSVKISCAASGYTFTDYSINWVRQAPGKGLEWVGWINTETREPAYAYDFRGRFTFSADTSKSTAYLQMNSLRAEDTAVYYCALDYSYAMDYWGQGTLVTVSS | 83 | 404 |  |  |  |
| CAR comprising scFv-12′ (SEQ ID NO: 68) (other, CAR on mRNA-electroporated human CD8+ T cells; Only the scFv is identified; not shown: rest of the CAR (hinge, transmembrane, cytoplasmic domains) not specified for this construct) DIVLTQSPSSLSASVGDRATISCRASESVTILGSHLIHWYQQKPGQAPKLLIQLASNVQTGVPARFSGSGSGTDFTLTISSVEPEDVAVYYCLQSKNFPRTFGQGTKVEIKGSTSGSGKPGSGEGSTKGQIQLVQSGPELKKPGGSVKISCAASGYTFTSYDINWVRQAPGKGLEWVGWINTETREPAYAYDFRGRFTFSADTSKSTAYLQMNSLRAEDTAVYYCALDYLYSLDFWGQGTLVTVSS | 7 | 446 |  |  |  |
| CAR comprising scFv-Y37 (SEQ ID NO: 60) (other, CAR on mRNA-electroporated human CD8+ T cells; Only the scFv is identified; not shown: rest of the CAR (hinge, transmembrane, cytoplasmic domains) not specified for this construct) DIVLTQSPASLAVSPGQRATITCRASESVTILGSHLIHWYQQKPGQPPKLLIQLASNVQTGVPARFSGSGSGTDFTLTISSVEPEDTANYYCLQSRTIPRTFGQGTKVEIKGSTSGSGKPGSGEGSTKGQIQLVQSGPELKKPGGSVKISCKASGYTFTDYSINWVRQAPGKGLEWVGWINTETREPAYAYDFTGRFTFSADTSKSMAYLQINSLRAEDTAVYYCALDYSYAMDYWGQGTLVTVSS | 83 | 381 | 83 | 382 relative (SEQ ID: 48 = 100) |  |
